Test results from patent US20240270821A1, “GIP/GLP1/GCG TRI-RECEPTOR AGONISTS AND USES THEREOF” (priority 2023, published 2024).
Numbering of substitutions follows the chain as printed.

B1: Example 1165 (peptide)
chain: YXQGTXTSDXXIXLDXKAQXEFIEXLIEGGPSSGEPPPSGE
modifications: non-natural residues (Aib, αMeF, 4Pal, Orn, Me4Pal); lipidated Lys; C-amide; synthetic construct; SITE 2: note = 2-Aminoisobutyric Acid; SITE 6: note = alpha-methyl-L-phenylalanine; SITE 10: note = 3-(4-Pyridyl)-L-alanine; SITE 11: note = alpha-methyl-L-serine; SITE 13: note = alpha-methyl-leucine; SITE 16: note = L-ornithine; SITE 17: note = Lysine is chemically modified th
B2: Example 1161 (peptide)
chain: B1 chain with I27V
modifications: Aib, αMeF(2F), 4Pal, αMeS, αMeL, Orn, Me4Pal, αMeY; lipidated Lys; amide; synthetic construct; SITE 2: note = 2-Aminoisobutyric Acid; SITE 6: note = alpha-methyl-2-fluoro-L-phenylalanine; SITE 10: note = 3-(4-Pyridyl)-L-alanine; SITE 11: note = alpha-methyl-L-serine; SITE 13: note = alpha-methyl-leucine; SITE 16: note = L-ornithine; SITE 17: note = Lysine is chemically mo
B3: Example 1171 (peptide)
chain: B1 chain
modifications: non-natural residues, (γGlu)2-C18 diacid lysine acylation, C-terminal amide; synthetic construct; SITE 2: note = 2-Aminoisobutyric Acid; SITE 6: note = alpha-methyl-L-phenylalanine; SITE 10: note = 3-(4-Pyridyl)-L-alanine; SITE 11: note = alpha-methyl-L-serine; SITE 13: note = alpha-methyl-leucine; SITE 16: note = L-ornithine; SITE 17: note = Lysine is chemically modified th
B4: Example 1160 (peptide)
chain: B1 chain with I27V, E35A
modifications: C-terminal amide; lysine acylated with (γ-Glu)2-C18 diacid; synthetic construct; SITE 2: note = 2-Aminoisobutyric Acid; SITE 6: note = alpha-methyl-2-fluoro-L-phenylalanine; SITE 10: note = 3-(4-Pyridyl)-L-alanine; SITE 11: note = alpha-methyl-L-serine; SITE 13: note = alpha-methyl-leucine; SITE 16: note = L-ornithine; SITE 17: note = Lysine is chemically mo
B5: Example 1162 (peptide)
chain: YXQGTXTSDXXIXLDXKAQXEFIEXLVEGGPSSGAPPPSGSE
modifications: non-natural residues; Lys acylated C18 diacid via γGlu2; C-term amide; synthetic construct; SITE 2: note = 2-Aminoisobutyric Acid; SITE 6: note = alpha-methyl-2-fluoro-L-phenylalanine; SITE 10: note = 3-(4-Pyridyl)-L-alanine; SITE 11: note = alpha-methyl-L-serine; SITE 13: note = alpha-methyl-leucine; SITE 16: note = L-ornithine; SITE 17: note = Lysine is chemically mo
B6: Example 1173 (peptide)
chain: B5 chain with V27I, A35E
modifications: (γGlu)2-C18 diacid on Lys; non-natural residues; amide; synthetic construct; SITE 2: note = 2-Aminoisobutyric Acid; SITE 6: note = alpha-methyl-L-phenylalanine; SITE 10: note = …; SITE 11: note = alpha-methyl-L-serine; SITE 13: note = alpha-methyl-leucine; SITE 16: note = L-ornithine; SITE 17: note = Lysine is chemically modified th
B7: Example 1178 (peptide)
chain: B5 chain with V27I
modifications: non-natural residues; AEEA-(γGlu)2-C18 diacid on Lys; amide; synthetic construct; SITE 2: note = 2-Aminoisobutyric Acid; SITE 6: note = alpha-methyl-2-fluoro-L-phenylalanine; SITE 10: note = 3-(4-Pyridyl)-L-alanine; SITE 11: note = alpha-methyl-L-serine; SITE 13: note = alpha-methyl-leucine; SITE 16: note = L-ornithine; SITE 17: note = Lysine is chemically mo
B8: Example 1166 (peptide)
chain: B5 chain with V27I
modifications: Aib, αMeF, 4Pal, αMeS, αMeL, Orn, Me4Pal, αMeY, acyl, amide; synthetic construct; SITE 2: note = 2-Aminoisobutyric Acid; SITE 6: note = alpha-methyl-L-phenylalanine; SITE 10: note = 3-(4-Pyridyl)-L-alanine; SITE 11: note = alpha-methyl-L-serine; SITE 13: note = alpha-methyl-leucine; SITE 16: note = L-ornithine; SITE 17: note = Lysine is chemically modified th
B9: Example 1172 (peptide)
chain: B5 chain with V27I
modifications: Aib, αMe residues, 4Pal, Orn, Me4Pal; acylated K; amide; synthetic construct; SITE 2: note = 2-Aminoisobutyric Acid; SITE 6: note = alpha-methyl-L-phenylalanine; SITE 10: note = 3-(4-Pyridyl)-L-alanine; SITE 11: note = alpha-methyl-L-serine; SITE 13: note = alpha-methyl-leucine; SITE 16: note = L-ornithine; SITE 17: note = Lysine is chemically modified th
B10: Example 1179 (peptide)
chain: B5 chain with V27I, A35E
modifications: non-natural residues, C-terminal amide, acylated Lys with fatty diacid; synthetic construct; SITE 2: note = 2-Aminoisobutyric Acid; SITE 6: note = alpha-methyl-2-fluoro-L-phenylalanine; SITE 10: note = 3-(4-Pyridyl)-L-alanine; SITE 11: note = alpha-methyl-L-serine; SITE 13: note = alpha-methyl-leucine; SITE 16: note = L-ornithine; SITE 17: note = Lysine is chemically mo
B11: Example 1163 (peptide)
chain: B5 chain with A35E
modifications: non-natural residues; lipidated Lys; C-terminal amide; synthetic construct; SITE 2: note = 2-Aminoisobutyric Acid; SITE 6: note = alpha-methyl-2-fluoro-L-phenylalanine; SITE 10: note = 3-(4-Pyridyl)-L-alanine; SITE 11: note = alpha-methyl-L-serine; SITE 13: note = alpha-methyl-leucine; SITE 16: note = L-ornithine; SITE 17: note = Lysine is chemically mo
B12: Example 1167 (peptide)
chain: B5 chain with V27I, A35E
modifications: non-natural residues; Lys acylated C18 diacid; C-terminal amide; synthetic construct; SITE 2: note = 2-Aminoisobutyric Acid; SITE 6: note = alpha-methyl-L-phenylalanine; SITE 10: note = 3-(4-Pyridyl)-L-alanine; SITE 11: note = alpha-methyl-L-serine; SITE 13: note = alpha-methyl-leucine; SITE 16: note = L-ornithine; SITE 17: note = Lysine is chemically modified th
B13: Example 1182 (peptide)
chain: YXQGTFTSDXXQXLDXKAQXQFIEXLIAXGPSSGEPPPSGGGE
modifications: non-natural residues; lysine acylated with C18 diacid; C-terminal amide; synthetic construct; SITE 2: note = 2-Aminoisobutyric Acid; SITE 10: note = 3-(4-Pyridyl)-L-alanine; SITE 11: note = alpha-methyl-L-serine; SITE 13: note = alpha-methyl-leucine; SITE 16: note = L-ornithine; SITE 17: note = Lysine is chemically modified through conjugation of the epsilon-amino group
B14: Example 1183 (peptide)
chain: B13 chain with E24Q, A28E
modifications: non-natural residues; lipidated Lys; C-terminal amide; synthetic construct; SITE 2: note = 2-Aminoisobutyric Acid; SITE 10: note = 3-(4-Pyridyl)-L-alanine; SITE 11: note = alpha-methyl-L-serine; SITE 13: note = alpha-methyl-leucine; SITE 16: note = L-ornithine; SITE 17: note = Lysine is chemically modified through conjugation of the epsilon-amino group

These binders were tested against hGLP-1R (Homo sapiens, UniProt P43220) (assay: cell-based or functional assay).
hGLP-1R, sequence (P43220 24-463): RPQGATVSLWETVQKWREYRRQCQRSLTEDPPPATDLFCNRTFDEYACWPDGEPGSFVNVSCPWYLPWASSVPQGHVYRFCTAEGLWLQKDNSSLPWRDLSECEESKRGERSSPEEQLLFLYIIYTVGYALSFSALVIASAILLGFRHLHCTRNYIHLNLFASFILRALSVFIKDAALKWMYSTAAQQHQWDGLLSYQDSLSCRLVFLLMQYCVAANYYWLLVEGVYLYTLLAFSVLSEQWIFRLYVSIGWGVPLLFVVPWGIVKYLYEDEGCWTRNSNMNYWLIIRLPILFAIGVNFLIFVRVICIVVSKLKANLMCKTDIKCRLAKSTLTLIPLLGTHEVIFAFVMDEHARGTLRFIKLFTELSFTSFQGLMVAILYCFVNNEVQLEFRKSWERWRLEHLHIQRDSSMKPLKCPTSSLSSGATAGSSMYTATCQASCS

Row | Binder | Relative cAMP EC50 [nM] | cAMP Rel EC50 (in the presence of 1% HSA) [nM]
1 | B1 | 0.632 | 87.7
2 | B2 | 0.39 | 35.5
3 | B3 | 0.529 | 52.9
4 | B4 | 0.365 | 31.2
5 | B5 | 0.372 | 34.5
6 | B6 | 0.604 | 59.1
7 | B7 |  | 39
8 | B8 | 0.478 | 65.6
9 | B9 | 0.44 | 45.5
10 | B10 | 0.652 | 37.9
11 | B11 | 0.449 | 35.4
12 | B12 | 0.636 | 89.2
13 | B13 | 0.797 | 80.4
14 | B14 | 0.769 | 53.6

These binders were tested against T1, human GIP receptor (human) (UniProt P48546) (assay: cell-based or functional assay).
T1 sequence (looked up): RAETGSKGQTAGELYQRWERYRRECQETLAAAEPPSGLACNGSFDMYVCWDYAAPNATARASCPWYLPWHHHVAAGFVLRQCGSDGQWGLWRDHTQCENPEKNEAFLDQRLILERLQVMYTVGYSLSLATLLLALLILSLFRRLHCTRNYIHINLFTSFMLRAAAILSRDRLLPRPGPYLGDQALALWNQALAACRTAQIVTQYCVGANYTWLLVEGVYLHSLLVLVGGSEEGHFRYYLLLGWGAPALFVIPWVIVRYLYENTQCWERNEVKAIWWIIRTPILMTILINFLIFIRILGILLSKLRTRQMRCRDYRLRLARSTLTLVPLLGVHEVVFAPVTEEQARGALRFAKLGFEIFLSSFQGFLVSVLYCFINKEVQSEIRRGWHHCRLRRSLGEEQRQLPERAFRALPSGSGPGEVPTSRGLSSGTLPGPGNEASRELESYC

Row | Binder | Relative cAMP EC50 [nM] | cAMP Rel EC50 (in the presence of 1% HSA) [nM]
15 | B1 | 0.0121 | 1.36
16 | B2 | 0.00973 | 0.733
17 | B3 | 0.00953 | 0.718
18 | B4 | 0.00773 | 0.598
19 | B5 | 0.00818 | 0.656
20 | B6 | 0.00943 | 0.764
21 | B7 |  | 0.544
22 | B8 | 0.00999 | 1.1
23 | B9 | 0.00886 | 0.7
24 | B10 | 0.0102 | 0.58
25 | B11 | 0.00951 | 0.721
26 | B12 | 0.011 | 1.22
27 | B13 | 0.0316 | 2.73
28 | B14 | 0.0484 | 3.16

What follows are binders tested against human glucagon receptor (human) (UniProt P47871) (assay: cell-based or functional assay).
human glucagon receptor (human), sequence (P47871 26-477): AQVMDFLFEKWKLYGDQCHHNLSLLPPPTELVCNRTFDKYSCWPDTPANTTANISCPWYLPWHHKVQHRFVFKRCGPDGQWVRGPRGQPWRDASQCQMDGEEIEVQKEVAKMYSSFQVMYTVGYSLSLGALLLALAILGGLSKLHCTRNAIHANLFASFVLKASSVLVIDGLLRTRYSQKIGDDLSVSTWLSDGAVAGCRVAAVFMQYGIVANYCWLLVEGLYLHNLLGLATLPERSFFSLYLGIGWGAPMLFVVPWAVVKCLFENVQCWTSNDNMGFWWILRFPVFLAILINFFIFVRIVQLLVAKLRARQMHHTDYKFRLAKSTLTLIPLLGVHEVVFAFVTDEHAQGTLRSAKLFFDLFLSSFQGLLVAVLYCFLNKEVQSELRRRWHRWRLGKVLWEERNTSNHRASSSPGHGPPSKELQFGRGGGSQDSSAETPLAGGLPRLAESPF

Row | Binder | Relative cAMP EC50 [nM] | cAMP Rel EC50 (in the presence of 1% HSA) [nM]
29 | B1 | 2.68 | 358
30 | B2 | 2.19 | 217
31 | B3 | 2.19 | 233
32 | B4 | 2.41 | 183
33 | B5 | 2.55 | 199
34 | B6 | 2.31 | 254
35 | B7 |  | 270
36 | B8 | 2.94 | 427
37 | B9 | 2.52 | 303
38 | B10 | 2.87 | 197
39 | B11 | 1.75 | 163
40 | B12 | 2.16 | 274
41 | B13 | 1.24 | 172
42 | B14 | 1.38 | 127
